Starred links: 1 amine or outer side, 2 acyl side, 3 side chain; linkers in the order of their positions; H or OH if unused. Non-standard residues stand in square brackets, D forms with d. Groups on a side chain read outwards from the residue. Primed or numbered codes have the meaning given here. No end group written: not given here. *: point of attachment. Dodecylbenzoate = dodecylbenzoyl lipid group; γGlu = O=C(O)[C@H](CCC(=O)[*:2])N[*:1]; Stearoyl = CCCCCCCCCCCCCCCCCC(=O)*; αMeF = C[C@](N)(Cc1ccccc1)C(=O)O; αMeK = C[C@](N)(CCCCN)C(=O)O; Lauroyl = CCCCCCCCCCCC(=O)*; αMeS = C[C@](N)(CO)C(=O)O; PEG2′ = not defined here; Aib = CC(C)(N)C(=O)O; Ahx = NCCCCCC(=O)O
T1: GLP-1R (INS1e assay) (UniProt P32301 22-463, limits assumed)
T1 sequence (looked up): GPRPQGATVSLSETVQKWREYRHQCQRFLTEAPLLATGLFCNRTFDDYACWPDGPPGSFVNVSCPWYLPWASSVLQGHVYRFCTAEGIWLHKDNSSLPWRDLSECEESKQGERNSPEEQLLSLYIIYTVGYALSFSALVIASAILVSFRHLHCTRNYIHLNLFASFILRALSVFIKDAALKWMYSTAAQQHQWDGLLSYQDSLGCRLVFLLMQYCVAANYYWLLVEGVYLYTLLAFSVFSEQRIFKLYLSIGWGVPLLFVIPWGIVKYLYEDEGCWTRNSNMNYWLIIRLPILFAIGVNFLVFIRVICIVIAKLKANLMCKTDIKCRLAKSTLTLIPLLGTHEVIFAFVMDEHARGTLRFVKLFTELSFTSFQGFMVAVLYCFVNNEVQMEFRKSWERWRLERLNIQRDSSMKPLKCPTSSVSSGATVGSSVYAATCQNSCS


biological target: T1, GLP-1R (INS1e assay); experiment: cell-based or functional assay

Binder | INS1e assay EC50 GLP-1 R n1 | INS1e assay EC50 GLP-1 R n2 | INS1e assay EC50 Mean pM GLP-1R
H[Aib]EGS[αMeF]TSDV[αMeS]S[αMeF]LEGEAA[αMeK]E[αMeF]IA[αMeF]VVK([PEG2′-Dodecylbenzoate])GG-NH2 [SEQ ID NO 179] | 0.336 nM | 0.345 nM | 340 pM
H[Aib]EGS[αMeF]TSDV[αMeS]S[αMeF]LEGEAA[αMeK]E[αMeF]IA[αMeF]VVK([PEG2′-PEG2′-PEG2′-Stearoyl])GG-NH2 [SEQ ID NO 190] | 0.0397 nM | 0.0485 nM | 44.1 pM
H[Aib]EGS[αMeF]TSDV[αMeS]S[αMeF]LEGEAA[αMeK]E[αMeF]IA[αMeF]VVK([Ahx-Ahx-Ahx-Dodecylbenzoate])GG-NH2 [SEQ ID NO 178] | 0.31 nM | 0.258 nM | 284 pM
H[Aib]EGS[αMeF]TSDV[αMeS]S[αMeF]LEGEAA[αMeK]E[αMeF]IA[αMeF]VVK([PEG2′-PEG2′-Lauroyl])GG-NH2 [SEQ ID NO 171] | 0.0817 nM | 0.175 nM | 128 pM
H[Aib]EGS[αMeF]TSDV[αMeS]S[αMeF]LEGEAA[αMeK]E[αMeF]IA[αMeF]VVK([PEG2′-PEG2′-PEG2′-Stearoyl])GG-NH2 [SEQ ID NO 199] | 0.787 nM | 2.13 nM | 1460 pM
H[Aib]EGS[αMeF]TSDV[αMeS]S[αMeF]LEGEAA[αMeK]E[αMeF]IA[αMeF]VVK([PEG2′-PEG2′-Dodecylbenzoate])GG-NH2 [SEQ ID NO 180] | 0.0678 nM | 0.0506 nM | 59.2 pM
H[Aib]EGS[αMeF]TSDV[αMeS]S[αMeF]LEGEAA[αMeK]E[αMeF]IA[αMeF]VVK([γGlu-γGlu-γGlu-Stearoyl])GG-NH2 (N-terminus assumed; SMILES CCCCCCCCCCCCCCCCCC(=O)N[C@@H](CCC(=O)N[C@@H](CCC(=O)N[C@@H](CCC(=O)NCCCC[C@H](NC(=O)[C@@H](NC(=O)[C@@H](NC(=O)[C@](C)(Cc1ccccc1)NC(=O)[C@H](C)NC(=O)[C@@H](NC(=O)[C@](C)(Cc1ccccc1)NC(=O)[C@H](CCC(=O)O)NC(=O)[C@](C)(CCCCN)NC(=O)[C@H](C)NC(=O)[C@H](C)NC(=O)[C@H](CCC(=O)O)NC(=O)CNC(=O)[C@H](CCC(=O)O)NC(=O)[C@H](CC(C)C)NC(=O)[C@](C)(Cc1ccccc1)NC(=O)[C@H](CO)NC(=O)[C@](C)(CO)NC(=O)[C@@H](NC(=O)[C@H](CC(=O)O)NC(=O)[C@H](CO)NC(=O)[C@@H](NC(=O)[C@](C)(Cc1ccccc1)NC(=O)[C@H](CO)NC(=O)CNC(=O)[C@H](CCC(=O)O)NC(=O)C(C)(C)NC(=O)[C@@H](N)Cc1c[nH]cn1)[C@@H](C)O)C(C)C)[C@@H](C)CC)C(C)C)C(C)C)C(=O)NCC(=O)NCC(N)=O)C(=O)O)C(=O)O)C(=O)O) [SEQ ID NO 184] | 0.351 nM | 0.501 nM | 426 pM
H[Aib]EGS[αMeF]TSDV[αMeS]S[αMeF]LEGEAA[αMeK]E[αMeF]IA[αMeF]VVK([Ahx-Ahx-Dodecylbenzoate])GG-NH2 [SEQ ID NO 177] | 0.266 nM | 0.755 nM | 510 pM
H[Aib]EGS[αMeF]TSDV[αMeS]S[αMeF]LEGEAA[αMeK]E[αMeF]IA[αMeF]VVK([PEG2′-PEG2′-PEG2′-Dodecylbenzoate])GG-NH2 [SEQ ID NO 181] | 0.0453 nM | 0.114 nM | 79.7 pM

Results, then the binder that gave them:

INS1e assay EC50 GLP-1 R n1 | INS1e assay EC50 GLP-1 R n2 | INS1e assay EC50 Mean pM GLP-1R | Binder
0.548 nM | 0.376 nM | 462 pM | H[Aib]EGS[αMeF]TSDV[αMeS]S[αMeF]LEGEAA[αMeK]E[αMeF]IA[αMeF]VVK([PEG2′-Lauroyl])GG-NH2 [SEQ ID NO 170]
0.189 nM | 0.462 nM | 326 pM | H[Aib]EGS[αMeF]TSDV[αMeS]S[αMeF]LEGEAA[αMeK]E[αMeF]IA[αMeF]VVK([Ahx-Ahx-Lauroyl])GG-NH2 (N-terminus assumed; SMILES CCCCCCCCCCCC(=O)NCCCCCC(=O)NCCCCCC(=O)NCCCC[C@H](NC(=O)[C@@H](NC(=O)[C@@H](NC(=O)[C@](C)(Cc1ccccc1)NC(=O)[C@H](C)NC(=O)[C@@H](NC(=O)[C@](C)(Cc1ccccc1)NC(=O)[C@H](CCC(=O)O)NC(=O)[C@](C)(CCCCN)NC(=O)[C@H](C)NC(=O)[C@H](C)NC(=O)[C@H](CCC(=O)O)NC(=O)CNC(=O)[C@H](CCC(=O)O)NC(=O)[C@H](CC(C)C)NC(=O)[C@](C)(Cc1ccccc1)NC(=O)[C@H](CO)NC(=O)[C@](C)(CO)NC(=O)[C@@H](NC(=O)[C@H](CC(=O)O)NC(=O)[C@H](CO)NC(=O)[C@@H](NC(=O)[C@](C)(Cc1ccccc1)NC(=O)[C@H](CO)NC(=O)CNC(=O)[C@H](CCC(=O)O)NC(=O)C(C)(C)NC(=O)[C@@H](N)Cc1c[nH]cn1)[C@@H](C)O)C(C)C)[C@@H](C)CC)C(C)C)C(C)C)C(=O)NCC(=O)NCC(N)=O) [SEQ ID NO 168]
0.114 nM | 0.173 nM | 144 pM | H[Aib]EGS[αMeF]TSDV[αMeS]S[αMeF]LEGEAA[αMeK]E[αMeF]IA[αMeF]VVK([PEG2′-PEG2′-Stearoyl])GG-NH2 [SEQ ID NO 189]
0.0931 nM | 0.269 nM | 181 pM | H[Aib]EGS[αMeF]TSDV[αMeS]S[αMeF]LEGEAA[αMeK]E[αMeF]IA[αMeF]VVK([Ahx-Ahx-Ahx-Lauroyl])GG-NH2 (N-terminus assumed; SMILES CCCCCCCCCCCC(=O)NCCCCCC(=O)NCCCCCC(=O)NCCCCCC(=O)NCCCC[C@H](NC(=O)[C@@H](NC(=O)[C@@H](NC(=O)[C@](C)(Cc1ccccc1)NC(=O)[C@H](C)NC(=O)[C@@H](NC(=O)[C@](C)(Cc1ccccc1)NC(=O)[C@H](CCC(=O)O)NC(=O)[C@](C)(CCCCN)NC(=O)[C@H](C)NC(=O)[C@H](C)NC(=O)[C@H](CCC(=O)O)NC(=O)CNC(=O)[C@H](CCC(=O)O)NC(=O)[C@H](CC(C)C)NC(=O)[C@](C)(Cc1ccccc1)NC(=O)[C@H](CO)NC(=O)[C@](C)(CO)NC(=O)[C@@H](NC(=O)[C@H](CC(=O)O)NC(=O)[C@H](CO)NC(=O)[C@@H](NC(=O)[C@](C)(Cc1ccccc1)NC(=O)[C@H](CO)NC(=O)CNC(=O)[C@H](CCC(=O)O)NC(=O)C(C)(C)NC(=O)[C@@H](N)Cc1c[nH]cn1)[C@@H](C)O)C(C)C)[C@@H](C)CC)C(C)C)C(C)C)C(=O)NCC(=O)NCC(N)=O) [SEQ ID NO 169]
1.38 nM | 0.89 nM | 1140 pM | H[Aib]EGS[αMeF]TSDV[αMeS]S[αMeF]LEGEAA[αMeK]E[αMeF]IA[αMeF]VVK([PEG2′-PEG2′-Stearoyl])GG-NH2 [SEQ ID NO 198]
0.0396 nM | 0.028 nM | 33.8 pM | H[Aib]EGS[αMeF]TSDV[αMeS]S[αMeF]LEGEAA[αMeK]E[αMeF]IA[αMeF]VVK([PEG2′-PEG2′-PEG2′-Lauroyl])GG-NH2 [SEQ ID NO 172]
